± gives the uncertainty stated by the source.

First the molecules themselves.
B1: Homeobox protein cut-like 1, residues 548 to 629; numbered along this chain, P39880 (parent)
chain: GEEMDTAEIARQVKEQLIKHNIGQRIFGHYVLGLSQGSVSEILARPKPWNKLTVRGKEPFHKMKQFLSDEQNILALRSIQGR

In the data set the parent is B1. The data set can be described thus: abundance fitness (aPCA) (normalised: wild type 0, dead -1); higher = more abundant; growth selection in yeast, the domain comes from the species named. As to conditions: Homo sapiens.
With GEEMDTAEIARQVKEQLIKHNIGQRIFGHYVLGLSQGSVSEILARPKPWNKLTVRGKEPFHKMKQFLSAEQNILALRSIQGR, the abundance fitness is -0.174 ± 0.032.

For the variant GEEMDTAEIARQVKEQLIKHNIGQRIFGHYVLGLSQGSVSEILARPKPWNKLTVRGKEPFHKMKQFLSEEQNILALRSIQGR, the abundance fitness was -0.134 ± 0.034.

For the variant GEEMDTAEIARQVKEQLIKHNIGQRIFGHYVLGLSQGSVSEILARPKPWNKLTVRGKEPFHKMKQFLSGEQNILALRSIQGR, the abundance fitness was -0.267 ± 0.027.

For the variant GEEMDTAEIARQVKEQLIKHNIGQRIFGHYVLGLSQGSVSEILARPKPWNKLTVRGKEPFHKMKQFLSFEQNILALRSIQGR, the abundance fitness is -0.252 ± 0.068.

Take GEEMDTAEIARQVKEQLIKHNIGQRIFGHYVLGLSQGSVSEILARPKPWNKLTVRGKEPFHKMKQFNSDEQNILALRSIQGR: the abundance fitness is -0.582 ± 0.12.

In the case of GEEMDTAEIARQVKEQLIKHNIGQRIFGHYVLGLSQGSVSEILARPKPWNKLTVRGKEPFHKMKQFSSDEQNILALRSIQGR, the abundance fitness was -1.01 ± 0.088.

GEEMDTAEIARQVKEQLIKHNIGQRIFGHYVLGLSQGSVSEILARPKPWNKLTVRGKEPFHKMKQFHSDEQNILALRSIQGR: the abundance fitness was -1.21 ± 0.32.

GEEMDTAEIARQVKEQLIKHNIGQRIFGHYVLGLSQGSVSEILARPKPWNKLTVRGKEPFHKMKQFKSDEQNILALRSIQGR: the abundance fitness is -0.918 ± 0.081.

As to GEEMDTAEIARQVKEQLIKHNIGQRIFGHYVLGLSQGSVSEILARPKPWNKLTVRGKEPFHKMKQFDSDEQNILALRSIQGR, the abundance fitness was -0.876 ± 0.12.

Take GEEMDTAEIARQVKEQLIKHNIGQRIFGHYVLGLSQGSVSEILARPKPWNKLTVRGKEPFHKMKQFFSDEQNILALRSIQGR: the abundance fitness was -0.341 ± 0.091.

Take GEEMDTAEIARQVKEQLIKHNIGQRIFGHYVLGLSQGSVSEILARPKPWNKLTVRGKEPFHKMKQFYSDEQNILALRSIQGR: the abundance fitness is -0.609 ± 0.16.

For GEEMDTAEIARQVKEQLIKHNIGQRIFGHYVLGLSQGSVSEILARPKPWNKLTVRGKEPFHKMKQFMSDEQNILALRSIQGR, the abundance fitness is -0.284 ± 0.045.

As to GEEMDTAEIARQVKEQLIKHNIGQRIFGHYVLGLSQGSVSEILARPKPWNKLTVRGKEPFHKMKQFQSDEQNILALRSIQGR, the abundance fitness was -0.978 ± 0.11.

With GEEMDTAEIARQVKEQLIKHNIGQRIFGHYVLGLSQGSVSEILARPKPWNKLTVRGKEPFHKMKQFWSDEQNILALRSIQGR, the abundance fitness was -0.817 ± 0.063.

Regarding GEEMDTAEIARQVKEQLIKHNIGQRIFGHYVLGLSQGSVSEILARPKPWNKLTVRGKEPFHKMKQFASDEQNILALRSIQGR, the abundance fitness was -0.736 ± 0.05.

Take GEEMDTAEIARQVKEQLIKHNIGQRIFGHYVLGLSQGSVSEILARPKPWNKLTVRGKEPFHKMKQFRSDEQNILALRSIQGR: the abundance fitness was -0.979 ± 0.057.

For the variant GEEMDTAEIARQVKEQLIKHNIGQRIFGHYVLGLSQGSVSEILARPKPWNKLTVRGKEPFHKMKQFVSDEQNILALRSIQGR, the abundance fitness is -0.243 ± 0.034.

With GEEMDTAEIARQVKEQLIKHNIGQRIFGHYVLGLSQGSVSEILARPKPWNKLTVRGKEPFHKMKQFISDEQNILALRSIQGR, the abundance fitness is -0.303 ± 0.1.

In the case of GEEMDTAEIARQVKEQLIKHNIGQRIFGHYVLGLSQGSVSEILARPKPWNKLTVRGKEPFHKMKQFCSDEQNILALRSIQGR, the abundance fitness was -0.498 ± 0.079.

For the variant GEEMDTAEIARQVKEQLIKHNIGQRIFGHYVLGLSQGSVSEILARPKPWNKLTVRGKEPFHKMKQFGSDEQNILALRSIQGR, the abundance fitness is -0.848 ± 0.04.

GEEMDTAEIARQVKEQLIKHNIGQRIFGHYVLGLSQGSVSEILARPKPWNKLTVRGKEPFHKMKFFLSDEQNILALRSIQGR: the abundance fitness is -0.446 ± 0.11.

With GEEMDTAEIARQVKEQLIKHNIGQRIFGHYVLGLSQGSVSEILARPKPWNKLTVRGKEPFHKMKIFLSDEQNILALRSIQGR, the abundance fitness was -0.096 ± 0.08.

As for GEEMDTAEIARQVKEQLIKHNIGQRIFGHYVLGLSQGSVSEILARPKPWNKLTVRGKEPFHKMKVFLSDEQNILALRSIQGR, the abundance fitness is -0.117 ± 0.026.

As for GEEMDTAEIARQVKEQLIKHNIGQRIFGHYVLGLSQGSVSEILARPKPWNKLTVRGKEPFHKMKMFLSDEQNILALRSIQGR, the abundance fitness was -0.056 ± 0.034.

GEEMDTAEIARQVKEQLIKHNIGQRIFGHYVLGLSQGSVSEILARPKPWNKLTVRGKEPFHKMKSFLSDEQNILALRSIQGR: the abundance fitness is -0.059 ± 0.033.

On to GEEMDTAEIARQVKEQLIKHNIGQRIFGHYVLGLSQGSVSEILARPKPWNKLTVRGKEPFHKMKWFLSDEQNILALRSIQGR, for which the abundance fitness is -0.201 ± 0.034.

As for GEEMDTAEIARQVKEQLIKHNIGQRIFGHYVLGLSQGSVSEILARPKPWNKLTVRGKEPFHKMKGFLSDEQNILALRSIQGR, the abundance fitness was -0.232 ± 0.023.

With GEEMDTAEIARQVKEQLIKHNIGQRIFGHYVLGLSQGSVSEILARPKPWNKLTVRGKEPFHKMKYFLSDEQNILALRSIQGR, the abundance fitness is -0.169 ± 0.055.

As to GEEMDTAEIARQVKEQLIKHNIGQRIFGHYVLGLSQGSVSEILARPKPWNKLTVRGKEPFHKMKTFLSDEQNILALRSIQGR, the abundance fitness is -0.029 ± 0.037.

GEEMDTAEIARQVKEQLIKHNIGQRIFGHYVLGLSQGSVSEILARPKPWNKLTVRGKEPFHKMKPFLSDEQNILALRSIQGR: the abundance fitness was -0.933 ± 0.092.

In the case of GEEMDTAEIARQVKEQLIKHNIGQRIFGHYVLGLSQGSVSEILARPKPWNKLTVRGKEPFHKMKKFLSDEQNILALRSIQGR, the abundance fitness is -0.076 ± 0.035.

In the case of GEEMDTAEIARQVKEQLIKHNIGQRIFGHYVLGLSQGSVSEILARPKPWNKLTVRGKEPFHKMKNFLSDEQNILALRSIQGR, the abundance fitness came out at 0.022 ± 0.057.

Turning to GEEMDTAEIARQVKEQLIKHNIGQRIFGHYVLGLSQGSVSEILARPKPWNKLTVRGKEPFHKMKRFLSDEQNILALRSIQGR, the abundance fitness is -0.039 ± 0.024.

As for GEEMDTAEIARQVKEQLIKHNIGQRIFGHYVLGLSQGSVSEILARPKPWNKLTVRGKEPFHKMKLFLSDEQNILALRSIQGR, the abundance fitness was -0.082 ± 0.029.

For the origin of these results see the Human Domainome abundance scans (Beltran et al. 2025).
